Common to all, as to experiment: SPR
A general note: SPR reads the build-up and loss of mass on a sensor chip optically.

For one experiment, the target named is T1, cynomolgus CD137 (cynomolgus monkey).
T1 chain: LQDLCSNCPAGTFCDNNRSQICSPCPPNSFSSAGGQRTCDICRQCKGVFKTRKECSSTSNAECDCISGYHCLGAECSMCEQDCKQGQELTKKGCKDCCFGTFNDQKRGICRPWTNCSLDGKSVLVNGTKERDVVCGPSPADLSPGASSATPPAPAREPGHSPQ

The next experiment addresses human CD137 (human, UniProt Q07011).
Another experiment concerns the target human HER2 (human, UniProt P04626).
The next experiment addresses T2, cynomolgus HER2 (cynomolgus monkey).
T2 chain: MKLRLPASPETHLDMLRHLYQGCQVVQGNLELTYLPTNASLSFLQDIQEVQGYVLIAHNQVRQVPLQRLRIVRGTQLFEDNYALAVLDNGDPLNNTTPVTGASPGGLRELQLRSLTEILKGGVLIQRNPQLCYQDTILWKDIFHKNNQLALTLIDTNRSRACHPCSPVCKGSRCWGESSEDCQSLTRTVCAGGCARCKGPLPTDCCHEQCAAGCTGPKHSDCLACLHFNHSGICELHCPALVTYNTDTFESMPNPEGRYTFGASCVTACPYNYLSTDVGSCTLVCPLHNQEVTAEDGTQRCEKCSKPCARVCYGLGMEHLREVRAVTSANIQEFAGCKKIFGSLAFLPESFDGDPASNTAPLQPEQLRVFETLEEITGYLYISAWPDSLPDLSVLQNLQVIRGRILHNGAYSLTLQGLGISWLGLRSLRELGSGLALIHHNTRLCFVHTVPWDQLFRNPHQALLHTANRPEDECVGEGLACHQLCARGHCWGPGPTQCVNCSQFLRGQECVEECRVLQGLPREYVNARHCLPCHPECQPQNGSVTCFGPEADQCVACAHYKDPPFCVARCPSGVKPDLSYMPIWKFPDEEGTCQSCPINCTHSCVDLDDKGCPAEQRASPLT

Where a chain is given by its changes, count along the chain named.

human CD137, sequence (Q07011 24-186): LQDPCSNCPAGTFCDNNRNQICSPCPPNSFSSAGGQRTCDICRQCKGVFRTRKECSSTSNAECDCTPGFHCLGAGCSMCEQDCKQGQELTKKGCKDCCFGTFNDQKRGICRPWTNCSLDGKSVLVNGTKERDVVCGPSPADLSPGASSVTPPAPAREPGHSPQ

B1: DART-D (CD137 arm) (antibody, V domains shown)
VH: QVQLQQPGAELVRPGASVKLSCKASGYTFTSYWINWVKQRPGQGLEWIGNIYPSDSYTNYNQKFKDKATLTVDKSSSTAYMQLSSPTSEDSAVYYCTRDYGSSYSFDYWGQGTTLTVSS
VL: DIQMTQTTSSLSASLGDRVTISCRPSQDISNYLNWYQQKPDGTVKLLIYYTSRLRSGVPSRFSGSGSGTDYSLTISNLEQEDIATYFCQQGDTLPYTFGGGTKLEIK
As to B1, the equilibrium dissociation constant (Kd) worked out at 67 nM with cynomolgus CD137 and 53 nM with human CD137.

B2: DART-G4 (CD137 arm) (antibody, V domains shown)
VH: QVQLVQSGAEVKKPGASVKVSCKASGYTFTSYWINWVKQAPGQGLEWIGNIYPSDSYTNYNQKFKDKATITADKSTSTAYMELSSLRSEDTAVYYCTRDYGSSYSYNVWGQGTTVTVSS
VL: DIQMTQSPSSLSASVGDRVTITCRPSQDISNYLNWYQQKPDKTVKLLIYYTSRLRSGVPSRFSGSGSGTDFTFTISSLQPEDIATYFCQQGDTLPYTFGQGTKLEIK
As for B2, the Kd is 40 nM with cynomolgus CD137 and 28 nM with human CD137.

B3: DART-G (CD137 arm) (antibody, V domains shown)
VH: B2 VH with Y106F, N107D, V108Y
VL: B2 VL
With B3, the Kd in the experiment with cynomolgus CD137 is 115 nM; with human CD137, 114 nM.

B4: DART-G2 (CD137 arm) (antibody, V domains shown)
VH: B2 VH with S103A, Y106M, N107S, V108T
VL: B2 VL
For B4, the dissociation constant (Kd) with cynomolgus CD137 was 64 nM; with human CD137 it was 60 nM.

B5: DART-G3 (CD137 arm) (antibody, V domains shown)
VH: B2 VH with S103A, N107S, V108L
VL: B2 VL
Turning to B5, the figures for the dissociation constant Kd in the experiment with cynomolgus CD137 and with human CD137 were 78 nM and 64 nM, respectively.

B6: DART-B (HER2 arm) (antibody, V domains shown)
VH: QVQLVQSGAEVKKPGASVKVSCKASGYTFTNYGMNWVRQAPGQGLEWMGWINTNIGEPTYTEEFKGRVTMTRDTSISTAYMELSRLRSDDTAVYYCARDDGYGNRVSYWGQGTLVTVSS
VL: DIQMTQSPSSLSASVGDRVTITCKASQDISNYLSWFQQKPGKAPKTLIYRANRLQSGVPSRFSGSGSGTDFTLTISSLQPEDFATYYCLQHDEFPWTFGQGTKLEIK
Regarding B6, the equilibrium dissociation constant (Kd) came to 0.38 nM with human HER2 and 0.66 nM with cynomolgus HER2.

What is called Kd is a measure of binding affinity in units of concentration. A high value points to weaker binding.

The values are drawn from patent US20240233818 (published 2024).
